Series [1] deals with the molecule itself. Nature of the series: SEC.
Series [2] concerns the molecule itself. Nature of the series: SEC. This is another data set of the same source.
Series [3] deals with the molecule itself. In words: SEC. The source holds these as a separate data set.
The series “SEC-MALS” concerns the molecule itself. In words: SEC-MALS.
Series [4] deals with the molecule itself. Nature of the series: NMR chemical shift comparison of monomer and dimer.

Residue numbers refer to the chain shown, from its start. Numbers in names are those of the source. Where two headings read alike, the source gives them in different places.

From publication PMC3456991 (Journal of molecular biology, 2012) come the findings set out here.

B1: Fis1ΔTM-C79S/C87S (domain or fragment, Saccharomyces cerevisiae)
chain: MMTKVDFWPTLKDAYEPLYPQQLEILRQQVVSEGGPTATIQSRFNYAWGLIKSTDVNDERLGVKILTDIYKEAESRRRESLYYLTIGSYKLGEYSMAKRYVDTLFEHERNNKQVGALKSMVEDKIQKE
In the case of B1, the binding result in the series “SEC [1]” is reported as “binds”.

B2: Fis1ΔTM-A72P (domain or fragment, Saccharomyces cerevisiae)
chain: B1 chain with A73P, S80C, S88C
For B2, the Kd in the series “SEC [2]” is at least 3000 µM.

B3: Fis1ΔTM (1-127), wild type cytoplasmic domain of yeast Fis1 (domain or fragment, Saccharomyces cerevisiae)
chain: B1 chain with S80C, S88C
As to B3, the Kd in “SEC [2]” came to 15 ± 3 µM; in the series “SEC [3]”, 0.24 ± 0.08 µM. Further, the “stoichiometry N” value in “SEC-MALS” was found to be 2.

B4: Fis1ΔTM-3 (E78D/I85T/Y88H) (domain or fragment, Saccharomyces cerevisiae)
chain: B1 chain with E79D, S80C, I86T, S88C, Y89H
As for B4, the binding result in “SEC [1]” was “binds”.

B5: Fis1ΔTM (1-126) without a linker or affinity tag, for NMR (domain or fragment, Saccharomyces cerevisiae, UniProt P40515 1-126, looked up)
chain: MTKVDFWPTLKDAYEPLYPQQLEILRQQVVSEGGPTATIQSRFNYAWGLIKSTDVNDERLGVKILTDIYKEAESRRRECLYYLTIGCYKLGEYSMAKRYVDTLFEHERNNKQVGALKSMVEDKIQK
With B5, the binding result in series [4] was “binds”.
